Assay results taken from article PMC10397247.
One block for each binder: values may come before it.

Legend:
Core_IINI-es_KKEE = target: T1, Core_IINI-es_KKEE; experiment: two-hybrid library CCmax; details: mean of both orientations;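 further: natural log of median RNA to DNA barcode read ratio; higher means stronger binding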
T1 chain: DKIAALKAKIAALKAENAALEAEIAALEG

4H121-bA = target: T2, 4H121-bA; experiment: two-hybrid library CCNG1;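 further: natural log of median RNA to DNA barcode read ratio; higher means stronger binding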
T2 chain: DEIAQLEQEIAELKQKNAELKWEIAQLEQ

4H182-bA = target: T3, 4H182-bA; experiment: two-hybrid library CCNG1;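 further: natural log of median RNA to DNA barcode read ratio; higher means stronger binding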
T3 chain: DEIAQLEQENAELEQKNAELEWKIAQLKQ

4H2134-bA = target: T4, 4H2134-bA; experiment: two-hybrid library CCNG1;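 further: natural log of median RNA to DNA barcode read ratio; higher means stronger binding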
T4 chain: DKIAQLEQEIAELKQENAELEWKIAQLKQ

4H2143-bA = target: T5, 4H2143-bA; experiment: two-hybrid library CCNG1
T5 chain: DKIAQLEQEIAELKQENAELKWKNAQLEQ

4H2223-bA = target: T6, 4H2223-bA; experiment: two-hybrid library CCNG1
T6 chain: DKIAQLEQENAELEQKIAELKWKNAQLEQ

4H2438-bA = target: T7, 4H2438-bA; experiment: two-hybrid library CCNG1
T7 chain: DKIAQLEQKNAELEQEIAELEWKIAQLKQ

4H2444-bA = target: T8, 4H2444-bA; experiment: two-hybrid library CCNG1
T8 chain: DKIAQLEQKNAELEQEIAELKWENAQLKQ

4H2473-bA = target: T9, 4H2473-bA; experiment: two-hybrid library CCNG1
T9 chain: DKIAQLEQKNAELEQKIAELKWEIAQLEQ

4H2503-bA = target: T10, 4H2503-bA; experiment: two-hybrid library CCNG1
T10 chain: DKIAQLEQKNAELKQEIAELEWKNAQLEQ

4H2588-bA = target: T11, 4H2588-bA; experiment: two-hybrid library CCNG1
T11 chain: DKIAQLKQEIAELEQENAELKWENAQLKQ

4H2692-bA = target: T12, 4H2692-bA; experiment: two-hybrid library CCNG1
T12 chain: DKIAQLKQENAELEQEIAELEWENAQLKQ

4H2717-bA = target: T13, 4H2717-bA; experiment: two-hybrid library CCNG1
T13 chain: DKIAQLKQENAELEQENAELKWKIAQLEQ

4H2839-bA = target: T14, 4H2839-bA; experiment: two-hybrid library CCNG1
T14 chain: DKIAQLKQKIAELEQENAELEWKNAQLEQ

4H2915-bA = target: T15, 4H2915-bA; experiment: two-hybrid library CCNG1
T15 chain: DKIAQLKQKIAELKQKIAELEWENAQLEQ

4H3057-bA = target: T16, 4H3057-bA; experiment: two-hybrid library CCNG1
T16 chain: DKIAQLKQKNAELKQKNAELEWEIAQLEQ

4H319-bA = target: T17, 4H319-bA; experiment: two-hybrid library CCNG1
T17 chain: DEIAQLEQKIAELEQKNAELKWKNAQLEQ

4H3277-bA = target: T18, 4H3277-bA; experiment: two-hybrid library CCNG1
T18 chain: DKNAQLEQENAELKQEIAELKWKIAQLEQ

4H348-bA = target: T19, 4H348-bA; experiment: two-hybrid library CCNG1
T19 chain: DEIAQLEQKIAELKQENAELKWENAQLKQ

4H40-bA = target: T20, 4H40-bA; experiment: two-hybrid library CCNG1
T20 chain: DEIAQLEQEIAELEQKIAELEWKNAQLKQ

4H477-bA = target: T21, 4H477-bA; experiment: two-hybrid library CCNG1
T21 chain: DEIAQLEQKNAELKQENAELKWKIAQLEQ

4H492-bA = target: T22, 4H492-bA; experiment: two-hybrid library CCNG1
T22 chain: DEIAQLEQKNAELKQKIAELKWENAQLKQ

4H741-bA = target: T23, 4H741-bA; experiment: two-hybrid library CCNG1
T23 chain: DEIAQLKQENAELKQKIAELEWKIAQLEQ

O1-bN = target: T24, O1-bN; experiment: two-hybrid library CCNG1
T24 chain: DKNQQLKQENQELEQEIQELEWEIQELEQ

O10-bN = target: T25, O10-bN; experiment: two-hybrid library CCNG1
T25 chain: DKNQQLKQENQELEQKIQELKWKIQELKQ

O11-bN = target: T26, O11-bN; experiment: two-hybrid library CCNG1
T26 chain: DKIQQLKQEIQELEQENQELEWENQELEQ

O12-bN = target: T27, O12-bN; experiment: two-hybrid library CCNG1
T27 chain: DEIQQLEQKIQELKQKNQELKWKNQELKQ

O13-bN = target: T28, O13-bN; experiment: two-hybrid library CCNG1
T28 chain: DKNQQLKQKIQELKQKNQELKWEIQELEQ

O14-bN = target: T29, O14-bN; experiment: two-hybrid library CCNG1
T29 chain: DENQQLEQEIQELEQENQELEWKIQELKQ

O15-bN = target: T30, O15-bN; experiment: two-hybrid library CCNG1
T30 chain: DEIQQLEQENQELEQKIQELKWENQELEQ

O16-bN = target: T31, O16-bN; experiment: two-hybrid library CCNG1
T31 chain: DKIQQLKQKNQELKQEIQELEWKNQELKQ

O2-bN = target: T32, O2-bN; experiment: two-hybrid library CCNG1
T32 chain: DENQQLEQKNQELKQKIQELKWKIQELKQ

O3-bN = target: T33, O3-bN; experiment: two-hybrid library CCNG1
T33 chain: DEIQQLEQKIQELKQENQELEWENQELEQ

O4-bN = target: T34, O4-bN; experiment: two-hybrid library CCNG1
T34 chain: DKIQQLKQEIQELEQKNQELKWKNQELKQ

O5-bN = target: T35, O5-bN; experiment: two-hybrid library CCNG1
T35 chain: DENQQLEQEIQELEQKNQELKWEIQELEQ

O6-bN = target: T36, O6-bN; experiment: two-hybrid library CCNG1
T36 chain: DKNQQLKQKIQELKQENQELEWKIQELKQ

O7-bN = target: T37, O7-bN; experiment: two-hybrid library CCNG1
T37 chain: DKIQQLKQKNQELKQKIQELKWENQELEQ

O8-bN = target: T38, O8-bN; experiment: two-hybrid library CCNG1
T38 chain: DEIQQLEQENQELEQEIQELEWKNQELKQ

O9-bN = target: T39, O9-bN; experiment: two-hybrid library CCNG1
T39 chain: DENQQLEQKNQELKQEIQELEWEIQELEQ

Core_NINN-es_KKKE = target: T40, Core_NINN-es_KKKE; experiment: two-hybrid library CCmax; details: mean of both orientations
T40 chain: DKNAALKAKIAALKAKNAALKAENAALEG

4H1347-bH = target: T41, 4H1347-bH; experiment: two-hybrid library CCNG1
T41 chain: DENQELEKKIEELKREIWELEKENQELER

4H145-bH = target: T42, 4H145-bH; experiment: two-hybrid library CCNG1
T42 chain: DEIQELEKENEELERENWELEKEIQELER

4H2619-bH = target: T43, 4H2619-bH; experiment: two-hybrid library CCNG1
T43 chain: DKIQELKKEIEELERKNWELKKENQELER

4H2691-bH = target: T44, 4H2691-bH; experiment: two-hybrid library CCNG1
T44 chain: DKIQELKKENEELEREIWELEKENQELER

4H3070-bH = target: T45, 4H3070-bH; experiment: two-hybrid library CCNG1
T45 chain: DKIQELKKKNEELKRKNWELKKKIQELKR

4H342-bH = target: T46, 4H342-bH; experiment: two-hybrid library CCNG1
T46 chain: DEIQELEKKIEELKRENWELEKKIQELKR

4H3632-bH = target: T47, 4H3632-bH; experiment: two-hybrid library CCNG1
T47 chain: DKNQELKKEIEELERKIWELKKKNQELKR

4H496-bH = target: T48, 4H496-bH; experiment: two-hybrid library CCNG1
T48 chain: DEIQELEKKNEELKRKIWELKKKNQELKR

- interaction score (Core_IINI-es_KKEE): 2.25
Binder: DEIAALEAEIAALEAKNAALKAKIAALKG [Core_IINI-es_EEKK]

- interaction score (4H121-bA): -0.103
- interaction score (4H182-bA): -1.13
- interaction score (4H2134-bA): 1.92
- interaction score (4H2143-bA): -0.624
- interaction score (4H2223-bA): 0.764
- interaction score (4H2438-bA): 1.56
- interaction score (4H2444-bA): -3.87
- interaction score (4H2473-bA): -1.11
- interaction score (4H2503-bA): -1.32
- interaction score (4H2588-bA): -0.283
- interaction score (4H2692-bA): -0.366
- interaction score (4H2717-bA): -0.497
- interaction score (4H2839-bA): 0.693
- interaction score (4H2915-bA): -0.0952
- interaction score (4H3057-bA): 0.0584
- interaction score (4H319-bA): -1.51
- interaction score (4H3277-bA): -1.51
- interaction score (4H348-bA): -1.19
- interaction score (4H40-bA): -0.579
- interaction score (4H477-bA): -1.12
- interaction score (4H492-bA): -1.44
- interaction score (4H741-bA): -1.09
Binder: DEIAQLEQEIAELKQKNAELKWEIAQLEQ [4H121-bA]

- interaction score (O1-bN): -0.57
- interaction score (O10-bN): -0.61
- interaction score (O11-bN): -1.2
- interaction score (O12-bN): -1.46
- interaction score (O13-bN): -1.14
- interaction score (O14-bN): -1.24
- interaction score (O15-bN): -1.32
- interaction score (O16-bN): -1.9
- interaction score (O2-bN): 2
- interaction score (O3-bN): -2.11
- interaction score (O4-bN): -0.922
- interaction score (O5-bN): -1.54
- interaction score (O6-bN): -1.45
- interaction score (O7-bN): -1.34
- interaction score (O8-bN): -0.836
- interaction score (O9-bN): -1.9
Binder: DKNQQLKQENQELEQEIQELEWEIQELEQ [O1-bN]

- interaction score (Core_NINN-es_KKKE): 2.16
Binder: DENAALEAEIAALEAENAALEAKNAALKG [Core_NINN-es_EEEK]

- interaction score (4H1347-bH): 0.364
- interaction score (4H145-bH): -0.368
- interaction score (4H2619-bH): -0.987
- interaction score (4H2691-bH): -0.275
- interaction score (4H3070-bH): -0.395
- interaction score (4H342-bH): -0.391
- interaction score (4H3632-bH): 1.71
- interaction score (4H496-bH): -0.415
Binder: DENQELEKKIEELKREIWELEKENQELER [4H1347-bH]
